Target: the molecule itself
Test: SEC; purified rApoJ on a size exclusion column; wide peak at 12-16 ml and a homogeneous peak at 16-18 ml (maximum 16.5 ml) of the elution volume; column and buffer are in the Supplementary Information

B1: recombinant human ApoJ (rApoJ), free (non-lipidated) (natural protein)
chain 1: DQTVSDNELQEMSNQGSKYVNKEIQNAVNGVKQIKTLIEKTNEERKTLLSNLEEAKKKKEDALNETRESETKLKELPGVCNETMMALWEECKPCLKQTCMKFYARVCRSGSGLVGRQLEEFLNQSSPFYFWMNGDRIDSLLENDRQQTHMLDVMQDHFSRASSIIDELFQDRFFTREPQDTYHYLPFSLPHRRPHFFFPKSRIVR
chain 2: SLMPFSPYEPLNFHAMFQPFLEMIHEAQQAMDIHFHSPAFQHPPTEFIREGDDDRTVCREIRHNSTGCLRMKDQCDKCREILSVDCSTNNPSQAKLRRELDESLQVAERLTRKYNELLKSYQWKMLNTSSLLEQLNEQFNWVSRLANLTQGEDQYYLRVTTVASHTSDSDVPSGVTEVVVKLFDSDPITVTVPVEVSRKNPKFMETVAEKALQEYRKKHREE
notes: apolipoprotein J (clusterin), human, beta chain: cut product of the precursor, disulfide-bonded to the alpha chain; apolipoprotein J (clusterin), human, alpha chain: cut product of the precursor, disulfide-bonded to the beta chain; Heterodimer of alpha and beta chains (about 40 kDa each, about 77 kDa non-reduced); They are written on the alpha chain on the surmise that they sit at the C-terminus …
  binding result: binds
